The values below come from patent US20200270570A1.

Test [1] deals with T1, mouse Fz8 (mouse) (UniProt Q61091).
T1 sequence (looked up): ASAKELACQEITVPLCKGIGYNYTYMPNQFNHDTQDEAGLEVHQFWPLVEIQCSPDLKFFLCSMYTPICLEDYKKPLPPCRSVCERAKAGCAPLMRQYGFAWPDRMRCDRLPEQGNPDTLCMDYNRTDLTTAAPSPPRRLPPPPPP
Briefly: FIG. 12A: preformed L-Wnt3A incubated with Fz8 (longer time course), ultracentrifugation, immunoblot. (Immunoblotting shows a protein as a band on a membrane.)

Test [2] concerns the target T1, mouse Fz8 (mouse). In words: FIG. 12A: L-Wnt3A incubated with Fz8 for 12 h RT, ultracentrifugation, western blot.
Test [3] has as its target T1, mouse Fz8 (mouse). In words: FIG. 11A: preformed L-Wnt3A incubated with Fz8 6 h RT, ultracentrifugation, western blot.
Test [4] addresses L-Wnt3A (Wnt3A reconstituted into liposomes) (human) (UniProt P56704). Briefly: FIG. 12A: preformed L-Wnt3A incubated with Fz8 (longer time course), ultracentrifugation, immunoblot.
Chain of UniProt P56704 (P56704 19-352 limits assumed): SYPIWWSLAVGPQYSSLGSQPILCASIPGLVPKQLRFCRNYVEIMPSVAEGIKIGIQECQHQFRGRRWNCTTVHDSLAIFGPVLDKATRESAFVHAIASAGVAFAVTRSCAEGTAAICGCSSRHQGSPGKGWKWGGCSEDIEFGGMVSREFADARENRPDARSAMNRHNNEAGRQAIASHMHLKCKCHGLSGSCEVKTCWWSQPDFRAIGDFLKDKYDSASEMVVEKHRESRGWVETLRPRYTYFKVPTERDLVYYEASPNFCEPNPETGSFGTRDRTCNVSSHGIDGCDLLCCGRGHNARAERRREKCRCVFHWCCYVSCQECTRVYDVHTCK
Test [5] has the same target. Briefly: FIG. 11A: preformed L-Wnt3A incubated with Fz8 6 h RT, ultracentrifugation, immunoblot.

In the case of “L-Wnt3A (Wnt3A reconstituted into liposomes) (from UniProt P56704 19-352)”, the values for the percent of Wnt3A in liposomal pellet (not with Fz8) with mouse Fz8 (mouse) [1] and in the test with mouse Fz8 (mouse) [3] were 88.7% and 100%, respectively. Further, the percent of Wnt3A in Fz8 rich supernatant in the test with mouse Fz8 (mouse) [2] was 11%.

As to “mouse Fz8 (from UniProt Q61091 28-173) (receptor)”, the percent of Fz8 in supernatant (not liposome-associated) in test [4] came to 94.5%; in test [5], 98.6%.
